Source: patent publication US20240182549A1, “PEPTIDES AND ANTIBODY FUSIONS THAT BIND TO SARS-COV-2 AND METHODS OF USING SAME” (priority 2021, published 2024)

What was measured:
[1] = biological target: S protein of authentic SARS-CoV-2 variant D614G, on virus (SARS-CoV-2) (UniProt P0DTC2); test: cell-based or functional assay
[2] = biological target: S protein of authentic (isogenic) SARS-CoV-2 variant B.1.351, on virus (SARS-CoV-2) (UniProt P0DTC2); test: cell-based or functional assay

With IgG REGN10933 (antibody) the IC50, focus reduction neutralization test [1] was 10 ng/mL and the IC50, focus reduction neutralization test [2] was over 1000 ng/mL.
